Laboratory results reported in US6987008B1, “Variant nucleoside-5′-phosphate producing enzyme” (priority 1999, dated 2006).
Changes are numbered by the printed parent chain. Numbers in names are those of the source.

Legend:
Format in all cases: biochemical, Escherichia blattae
Conditions in all cases: other: transphosphorylation, 100 mM sodium pyrophosphate, 10–100 mM inosine, pH 4, 30° C., 10 min, cell free extract, Hanes-Woolf
[1] = substrate: OC[C@H]1O[C@@H](n2cnc3c(O)ncnc32)[C@H](O)[C@@H]1O; assay: Km for inosine, transphosphorylation by S72E/G74D/I153T mutant EB-AP
Description: (§1) In order to construct a mutant EB-AP for expression in Escherichia coli JM109, a plasmid pEPI340 containing a gene for G74D/I153T mutant EB-AP was used as a template for site-directed mutagenesis utilizing PCR. The nucleotide sequences of these plasmids pEPI305 and pEPI340 are disclosed in Japanese Patent Laid-open (Kokai) No. 10-201481/1998, paragraph (0143), Table 12. […]
(§2) Then, the Km value for inosine in the transphosphorylation reaction by each 3-residue replaced mutant EB-AP was measured under the following conditions. […] After 200 μl of 1 N hydrochloric acid was added to stop the reaction, the precipitates were removed by centrifugation, and the produced 5′-inosinic acid was quantified. The Km value was calculated by the Hanes-Woolf plotting.
(§3) 5′-Inosinic acid was analyzed by high performance liquid chromatography (HPLC) under the following conditions. • Column: Cosmosil 5C18-AR (4.6×150 mm), produced by Nakarai Tesque • Mobile phase: 5 mM potassium phosphate buffer (pH 2.8)/methanol=95/5 • Flow rate: 1.0 ml/min • Temperature: room temperature • Detection: UV 245 nm

[2] = substrate: OC[C@H]1O[C@@H](n2cnc3c(O)ncnc32)[C@H](O)[C@@H]1O; assay: Km for inosine, transphosphorylation by S72F/G74D/I153T mutant EB-AP
Description: as §1, §2, §3

[3] = substrate: OC[C@H]1O[C@@H](n2cnc3c(O)ncnc32)[C@H](O)[C@@H]1O; assay: Km for inosine, transphosphorylation by S72T/G74D/I153T mutant EB-AP
Description: as §1, §2, §3

[4] = substrate: OC[C@H]1O[C@@H](n2cnc3c(O)ncnc32)[C@H](O)[C@@H]1O; assay: Km for inosine, transphosphorylation by A72E/L140F/10-residue replaced mutant EB-AP
[5] = substrate: OC[C@H]1O[C@@H](n2cnc3c(O)ncnc32)[C@H](O)[C@@H]1O; assay: Km for inosine, transphosphorylation by A72E/10-residue replaced mutant EB-AP
Description: (§4) Then, the Km value for inosine in the transphosphorylation reaction by each 3-residue replaced mutant EB-AP was measured under the following conditions. A reaction mixture (1 ml) containing 100 mM sodium pyrophosphate, 100 mM acetate buffer (pH 4.0), 10–100 mM inosine and 100 μl of the cell free extract was incubated at pH 4 and 30° C. for 10 minutes. After 200 μl of 1 N hydrochloric acid was added to stop the reaction, the precipitates were removed by centrifugation, and the produced 5′-inosinic acid was quantified. The Km value was calculated by the Hanes-Woolf plotting.
as §3
(§5) The S72F mutation that decreased the Km value in the highest degree and the S72E mutation that enhanced the activity in the highest degree in Example 12 were introduced into the 10-residue replaced mutant EB-AP. Since Ser72 was replaced with Ala in the 10-residue replaced mutant EB-AP, the A72F and A72E mutations were actually introduced. […] Furthermore, transphosphorylation activity and reaction rate constant were measured by the method described in Example 12. […]

[6] = substrate: OC[C@H]1O[C@@H](n2cnc3c(O)ncnc32)[C@H](O)[C@@H]1O; assay: Km for inosine, transphosphorylation by 10-residue replaced mutant EB-AP
[7] = substrate: OC[C@H]1O[C@@H](n2cnc3c(O)ncnc32)[C@H](O)[C@@H]1O; assay: Km for inosine, transphosphorylation by S72V/G74D/I153T mutant EB-AP
Description: as §1, §2, §3

[8] = substrate: OC[C@H]1O[C@@H](n2cnc3c(O)ncnc32)[C@H](O)[C@@H]1O; assay: Km for inosine, transphosphorylation by A72E/L140K/10-residue replaced mutant EB-AP
[9] = substrate: OC[C@H]1O[C@@H](n2cnc3c(O)ncnc32)[C@H](O)[C@@H]1O; assay: Km for inosine, transphosphorylation by S72D/G74D/I153T mutant EB-AP
Description: as §1, §2, §3

[10] = substrate: OC[C@H]1O[C@@H](n2cnc3c(O)ncnc32)[C@H](O)[C@@H]1O; assay: Km for inosine, transphosphorylation by A72F/10-residue replaced mutant EB-AP
Description: as §4, §3, §5

[11] = substrate: OC[C@H]1O[C@@H](n2cnc3c(O)ncnc32)[C@H](O)[C@@H]1O; assay: Km for inosine, transphosphorylation by S72M/G74D/I153T mutant EB-AP
Description: as §1, §2, §3

[12] = substrate: OC[C@H]1O[C@@H](n2cnc3c(O)ncnc32)[C@H](O)[C@@H]1O; assay: Km for inosine, transphosphorylation by G74D/I153T mutant EB-AP
[13] = substrate: OC[C@H]1O[C@@H](n2cnc3c(O)ncnc32)[C@H](O)[C@@H]1O; assay: Km for inosine, transphosphorylation by S72Y/G74D/I153T mutant EB-AP
Description: as §1, §2, §3

[14] = substrate: OC[C@H]1O[C@@H](n2cnc3c(O)ncnc32)[C@H](O)[C@@H]1O; assay: Km for inosine, transphosphorylation by S72W/G74D/I153T mutant EB-AP
Description: as §1, §2, §3

B1: Escherichia blattae acid phosphatase (EB-AP, SEQ ID NO: 2 / 124) mutant S72E/G74D/I153T (Shimwellia blattae; G92D/I171T/S90E) (protein)
chain: LVATGNDTTTKPDLYYLKNSEAINSLALLPPPPAVGSIAFLNDQAMYEQGRLLRNTERGKLAAEDANLSEGDVANAFSGAFGSPITEKDAPALHKLLTNMIEDAGDLATRSAKDHYMRIRPFAFYGVSTCNTTEQDKLSKNGSYPSGHTSTGWATALVLAEINPQRQNEILKRGYELGQSRVICGYHWQSDVDAARVVGSAVVATLHTNPAFQQQLQKAKAEFAQHQKK
[1]
  Km: 40 mM

B2: Escherichia blattae acid phosphatase (EB-AP, SEQ ID NO: 2 / 124) mutant S72F/G74D/I153T (Shimwellia blattae; G92D/I171T/S90F) (protein)
chain: B1 chain with E70F
[2]
  Km: 20 mM

B3: Escherichia blattae acid phosphatase (EB-AP, SEQ ID NO: 2 / 124) mutant S72T/G74D/I153T (Shimwellia blattae; G92D/I171T/S90T) (protein)
chain: B1 chain with E70T
[3]
  Km: 50 mM

B4: Escherichia blattae acid phosphatase (EB-AP, SEQ ID NO: 2 / 124) mutant A72E/L140F/10-residue replaced (L63Q/A65Q/E66A/N69D/S71A/S72A/G74D/T135K/E136D/I153T … (protein)
chain: B1 chain with L61Q, A63Q, E64A, N67D, S69A, T133K, E134D, L138F
[4]
  Km: 9 mM

B5: Escherichia blattae acid phosphatase (EB-AP, SEQ ID NO: 2 / 124) mutant A72E/10-residue replaced (L63Q/A65Q/E66A/N69D/S71A/S72A/G74D/T135K/E136D/I153T with … (protein)
chain: B1 chain with L61Q, A63Q, E64A, N67D, S69A, T133K, E134D
[5]
  Km: 15 mM

B6: Escherichia blattae acid phosphatase (EB-AP, SEQ ID NO: 2 / 124) 10-residue replaced mutant L63Q/A65Q/E66A/N69D/S71A/S72A/G74D/T135K/E136D/I153T (Shimwellia … (protein)
chain: B1 chain with L61Q, A63Q, E64A, N67D, S69A, E70A, T133K, E134D
[6]
  Km: 40 mM

B7: Escherichia blattae acid phosphatase (EB-AP, SEQ ID NO: 2 / 124) mutant S72V/G74D/I153T (Shimwellia blattae; G92D/I171T/S90V) (protein)
chain: B1 chain with E70V
[7]
  Km: 40 mM

B8: Escherichia blattae acid phosphatase (EB-AP, SEQ ID NO: 2 / 124) mutant A72E/L140K/10-residue replaced (L63Q/A65Q/E66A/N69D/S71A/S72A/G74D/T135K/E136D/I153T … (protein)
chain: B1 chain with L61Q, A63Q, E64A, N67D, S69A, T133K, E134D, L138K
[8]
  Km: 78 mM

B9: Escherichia blattae acid phosphatase (EB-AP, SEQ ID NO: 2 / 124) mutant S72D/G74D/I153T (Shimwellia blattae; G92D/I171T/S90D) (protein)
chain: B1 chain with E70D
[9]
  Km: 33 mM

B10: Escherichia blattae acid phosphatase (EB-AP, SEQ ID NO: 2 / 124) mutant A72F/10-residue replaced (L63Q/A65Q/E66A/N69D/S71A/S72A/G74D/T135K/E136D/I153T with … (protein)
chain: B1 chain with L61Q, A63Q, E64A, N67D, S69A, E70F, T133K, E134D
[10]
  Km: 9 mM

B11: Escherichia blattae acid phosphatase (EB-AP, SEQ ID NO: 2 / 124) mutant S72M/G74D/I153T (Shimwellia blattae; G92D/I171T/S90M) (protein)
chain: B1 chain with E70M
[11]
  Km: 46 mM

B12: Escherichia blattae acid phosphatase (EB-AP, SEQ ID NO: 2 / 124) mutant G74D/I153T (Shimwellia blattae; G92D/I171T) (protein)
chain: B1 chain with E70S
[12]
  Km: 100 mM

B13: Escherichia blattae acid phosphatase (EB-AP, SEQ ID NO: 2 / 124) mutant S72Y/G74D/I153T (Shimwellia blattae; G92D/I171T/S90Y) (protein)
chain: B1 chain with E70Y
[13]
  Km: 25 mM

B14: Escherichia blattae acid phosphatase (EB-AP, SEQ ID NO: 2 / 124) mutant S72W/G74D/I153T (Shimwellia blattae; G92D/I171T/S90W) (protein)
chain: B1 chain with E70W
[14]
  Km: 30 mM
